Test results reported in article PMC7718874 (2020).
Each block holds one binder with its values, some of them ahead of it. Where no end group is shown, it is not given here. Me3 = trimethyl-lysine; Me2 = dimethyl-lysine

B3: AIPP3-BAH domain (residues 112-279) (domain or fragment)
chain: GKGKGKRTHFNQFAYDGNTYDLEVPVLLVPEDKSQKPYVAIIKDITQTKDGSMMILGQWFYRPEEAEKRGGGNWQSSDTRELFYSFHRDEVPAESVMHRCVVYFVPAHKQLPKRKNNPGFIVRKVYDTVEKKLWKLTDKDYEDSKQREIDVLVKKTMNVLGDLPDLES
B4: PAIPP2-PHD finger (domain or fragment)
chain: VKVCDICGDAGREDLLAICSGCSDGAEHTYCMREMLDEVPEGDWLCEECAEE

Tests used:
Assay in all cases: ITC
[1] = target: B4
[2] = target: T1, AIPP3-BAH domain Y149A (Arabidopsis, UniProt Q8RXT5 112-279, Y149A)
T1 sequence: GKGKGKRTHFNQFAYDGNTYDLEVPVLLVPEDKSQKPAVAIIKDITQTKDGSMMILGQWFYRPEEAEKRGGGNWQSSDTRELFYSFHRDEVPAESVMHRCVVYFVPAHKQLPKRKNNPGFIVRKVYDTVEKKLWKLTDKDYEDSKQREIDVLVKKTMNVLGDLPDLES

[3] = target: B3
[4] = target: T2, AIPP3-BAH domain H198A (Arabidopsis, UniProt Q8RXT5 112-279, H198A)
T2 sequence: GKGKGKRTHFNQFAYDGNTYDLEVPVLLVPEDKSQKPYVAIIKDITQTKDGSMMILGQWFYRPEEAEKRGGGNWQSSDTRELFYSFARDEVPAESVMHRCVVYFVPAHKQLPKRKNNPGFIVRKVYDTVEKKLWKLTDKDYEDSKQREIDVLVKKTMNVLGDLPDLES

[5] = target: T3, AIPP3-BAH domain W170A (Arabidopsis, UniProt Q8RXT5 112-279, W170A)
T3 sequence: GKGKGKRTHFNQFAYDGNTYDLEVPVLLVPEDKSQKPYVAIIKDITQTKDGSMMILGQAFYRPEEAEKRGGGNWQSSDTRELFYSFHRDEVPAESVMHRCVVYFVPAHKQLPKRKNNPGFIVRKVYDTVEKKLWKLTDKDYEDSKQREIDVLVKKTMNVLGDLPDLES

[6] = target: T4, AIPP3-BAH domain D200A (Arabidopsis, UniProt Q8RXT5 112-279, D200A)
T4 sequence: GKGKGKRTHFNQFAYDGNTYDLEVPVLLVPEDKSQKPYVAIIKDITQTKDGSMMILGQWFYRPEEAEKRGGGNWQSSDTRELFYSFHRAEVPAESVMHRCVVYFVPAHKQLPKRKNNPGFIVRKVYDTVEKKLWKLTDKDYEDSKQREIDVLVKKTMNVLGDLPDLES

[7] = target: T5, H3K27me2 (Arabidopsis thaliana, also: biotinylated in pull-down)
T5 chain: LATKAARK(Me2)SAPATGGVKK

[8] = target: T6, H3K27me1 (Arabidopsis thaliana, also: biotinylated in pull-down)
T6 chain: LATKAARK(Me)SAPATGGVKK

[9] = target: T7, H3K4me1 (Arabidopsis thaliana)
T7 chain: ARTK(Me)QTARKSTGGKA

[10] = target: T8, H3K4me2 (Arabidopsis thaliana)
T8 chain: ARTK(Me2)QTARKSTGGKA

Binder: B3
- Kd [7]: 17.1 µM
- Kd [8]: 24.2 µM

Binder: B4
- Kd [9]: 22.1 µM
- Kd [10]: 30 µM

B5: H3K4me3 peptide (peptide)
chain: ARTK(Me3)QTARKSTGGKA
- Kd [3]: 24.3 µM

The remaining lines, values ahead:

- Kd [1]: 18.6 µM
B1: unmodified H3K4 peptide (peptide)
chain: ARTKQTARKSTGGKA
modifications: zinc-bound PHD finger; limits from the UniProt ZN_FING feature, construct limits not printed unmodified Lys4; H3 1-15 assumed by convention

- Kd [2]: 19.8 µM
- Kd [3]: 7.4 µM
- Kd [4]: 17.4 µM
- Kd [5]: 28.5 µM
- Kd [6]: 34.1 µM
B2: H3K27me3 peptide (peptide)
chain: LATKAARK(Me3)SAPATGGVKK

- Kd [3]: 17.3 µM
B6: H3K9me2 peptide (peptide)
chain: ARTKQTARKSTGGKA
modifications: dimethyl-lysine at K9
